{
  "source": "patent US7271245B2",
  "about": "“Methods and compositions for inhibition of metastasis” (The Scripps Research Institute, priority 2004, dated 2007)",
  "molecules": {"B1": {"name": "LM609: function blocking antibody against integrin αvβ3 (antibody, V domains shown)", "VH": "EVQLEESGGGLVKPGGSLKLSCAASGFAFSSYDMSWVRQIPEKRLEWVAKVSSGGGSTYYLDTVQGRFTISRDNAKNTLYLQMSSLNSEDTAMYYCARHNYGSFAYWGQGTLVTVSA", "VL": "ELVMTQTPATLSVTPGDSVSLSCRASQSISNHLHWYQQKSHESPRLLIKYASQSISGIPSRFSGSGSGTDFTLSINSVETEDFGMYFCQQSNSWPHTFGGGTKLEIKRA"}, "B2": {"name": "Bc-20: non-RGD containing, non-function blocking anti αv scFv (protein)", "scFv": "MAQVQLVQSGGGLVQPGGSLRLSCAASGFTFSSYWMSWVRQAPGKGLEWVANIKQDGSEKYYVDSVKGRFTISRDNAKNSLYLQMNSLRAEDTAVYYCARDGGFAGWAFDIWGQGTTVTVSSGGGGSGGGGSGGGGSDIQMTQSPSALSASVGDRVTITCRASQGLDNYLAWYQLQPGKAPKLLIYDAFTLQSGVPSRFSGGGSGTDFTLTISSLQPEDFATYFCQQLQSYPLTFGGGTKVEIKRGLGGLVDYKDDD"}},
  "key": {"[1]": {"system": "BMS human breast cancer cells", "assay": "Tumor cell adhesion under stationary conditions", "type": "cell-based", "conditions": "200 μM peptide, 30 min at 37° C.", "experimental": "(§1) FIGS. 3A, 3B, 3C, 3D, 3E. scFv Bc-12 and Bc-15 inhibit αvβ3 mediated adhesive breast cancer cell functions. (A) Adhesion of BMS human breast cancer cells to fibrinogen (Fg), vitronectin (VN) or type I collagen (Col I) in the absence or presence of 3 μM Bc-12, Bc-15 or their RGE mutants Mut-12, Mut-15, compared to 200 μM GRGDSPK peptide (SEQ ID NO: 11). Protein coating concentrations: 10 μg/ml (VN, Col I) or 20 μg/ml (Fg). Adhesion time: 30 min at 37° C. (B) Effect of scFvs on haptotactic BMS cell migration toward a fibrinogen substrate (16 hrs at 37° C. in transwell chambers with or without 2 μM Bc-12, Bc-15 or their RGE mutants Mut-12 or Mut-15, compared to 200 μM GRGDSPK peptide) (SEQ ID NO: 11). (C) Effect of scFvs on breast cancer cell arrest during blood flow. Metastatic BMS cells, labeled with hydroethidine, were suspended in human blood (anticoagulated with 50 nM PPACK) and perfused over a collagen I matrix at a venous wall shear rate of 50 s^−1. Under these conditions, breast cancer cells arrest by αvβ3 mediated binding to adherent, thrombus forming platelets. Tumor cell adhesion was quantified by image acquisition at 30 predefined positions during blood flow. Left: representative images of platelet signal (thrombi, green fluorescence) and tumor cell signal (red fluorescence) at identical x,y positions. Right: Number of arrested tumor cells in the presence of 3 μM non-function blocking anti αv scFv Bc-20 or function blocking anti αvβ3 scFvs Bc-12 or Bc-15. (D) scFv Bc-15 is internalized by human breast cancer cells and reduces cell proliferation. Left: confocal images of BMS cells incubated for 4 hrs with FITC-Bc-15 at 4° C. (binding) versus 37° C. (allowing internalization). Right: Phase contrast images of BMS cell cultures 4 days after seeding in the presence of 2 μM RGE containing scFv Mut-15, or RGD containing Bc-15. (E) Effect of scFv Bc-12 on the viability of matrix deprived BMS breast cancer cells in ultra-low-adhesion plates in the presence or absence of 3.7 μM scFv, or 14.36 μM camptothecin as apoptosis inducing control. Measurement of apoptosis was based on cytoplasmic histone-associated DNA fragments after 20 hrs.\nCell adhesion and migration. Tumor cell adhesion under stationary conditions was analyzed as detailed earlier (19). Adhesion buffer was Hanks balanced salt solution (HBSS) pH 7.4, 0.5% BSA, 1 mM MgCl2, 0.2 mM MnCl2. For inhibition, cells were incubated for 5 min at RT either with 3 μM scFv or 200 μM GRGDSPK (SEQ ID NO: 11) peptide, then plated in the presence of inhibitor and allowed to attach for 30 min at 37° C. Haptotactic tumor cell migration toward fibrinogen was analyzed in transwell chambers as detailed earlier. Rolli, M., et al., Proc. Natl. Acad. Sci. U.S.A 100: 9482-9487, 2003. […]"}, "[2]": {"system": "BMS human breast cancer cells", "assay": "Haptotactic tumor cell migration toward fibrinogen (transwell)", "type": "cell-based", "conditions": "200 μM peptide, 16 hrs at 37° C.", "experimental": "as §1, with “(E) Effect of scFv Bc-12 on the viability of matrix deprived BMS breast cancer cells in ultra-low-adhesion plates in the presence or absence of 3.7 μM scFv, or 14.36 μM camptothecin as apoptosis inducing control. Measurement of apoptosis was based on cytoplasmic histone-associated DNA fragments after 20 hrs.” left out\nCell adhesion and migration. Tumor cell adhesion under stationary conditions was analyzed as detailed earlier (19). […] Haptotactic tumor cell migration toward fibrinogen was analyzed in transwell chambers as detailed earlier. […]"}, "[3]": {"system": "human melanoma cells", "conditions": "mouse model; cited from earlier work"}, "[4]": {"system": "BMS breast cancer cells", "assay": "Tumor cell arrest during blood flow", "type": "cell-based", "conditions": "3 μM scFv, human blood, collagen I matrix, shear rate 50 s^−1", "experimental": "FIGS. 3A, 3B, 3C, 3D, 3E. scFv Bc-12 and Bc-15 inhibit αvβ3 mediated adhesive breast cancer cell functions. (A) Adhesion of BMS human breast cancer cells to fibrinogen (Fg), vitronectin (VN) or type I collagen (Col I) in the absence or presence of 3 μM Bc-12, Bc-15 or their RGE mutants Mut-12, Mut-15, compared to 200 μM GRGDSPK peptide (SEQ ID NO: 11). Protein coating concentrations: 10 μg/ml (VN, Col I) or 20 μg/ml (Fg). Adhesion time: 30 min at 37° C. (B) Effect of scFvs on haptotactic BMS cell migration toward a fibrinogen substrate (16 hrs at 37° C. in transwell chambers with or without 2 μM Bc-12, Bc-15 or their RGE mutants Mut-12 or Mut-15, compared to 200 μM GRGDSPK peptide) (SEQ ID NO: 11). (C) Effect of scFvs on breast cancer cell arrest during blood flow. Metastatic BMS cells, labeled with hydroethidine, were suspended in human blood (anticoagulated with 50 nM PPACK) and perfused over a collagen I matrix at a venous wall shear rate of 50 s^−1. Under these conditions, breast cancer cells arrest by αvβ3 mediated binding to adherent, thrombus forming platelets. Tumor cell adhesion was quantified by image acquisition at 30 predefined positions during blood flow. Left: representative images of platelet signal (thrombi, green fluorescence) and tumor cell signal (red fluorescence) at identical x,y positions. […]\nTumor cell arrest during bloodflow. Breast cancer cell arrest during blood flow and interaction with platelets was measured as described. […] Adhesive events and cell interactions were visualized and recorded by fluorescence video microscopy and quantified by image acquisition at 30 predefined positions followed by computerized image analysis (MetaMorph, Universal Imaging). Tumor cells were stained with hydroethidine (red fluorescence) (20 μg/ml, 30 min, 37° C.), washed, and mixed with blood containing 10 μM mepacrine (green fluorescence). Blood cells, tumor cells, and platelets acquired green fluorescence and were visualized at 488/515 nm (excitation/emission). Tumor cells were identified by their unique red fluorescence at 543/590 nm. […]"}, "[5]": {"system": "integrin αvβ3", "assay": "Flow cytometry, scFv binding to human tumor cell panel", "experimental": "FIGS. 1A, 1B, 1C. Patient derived scFvs Bc-12 and Bc-15 recognize tumor cell integrin αvβ3 in a cation and activation dependent manner. Flow cytometric analyses in TBS with or without 1 mM Ca^2+, 1 mM Mg^2+, or 0.2 mM Mn^2+ as indicated. Binding of soluble scFv detected after incubation with anti-Flag M2 murine mAb followed by FITC-anti mouse F(ab′)2. (A) scFv binding to human melanoma cells (M21: αvβ3 plus other αv integrins) (M21-LIIb: αIIbβ3, no αv integrins) or lung adenocarcinoma cells (UCLA-P3: αv integrins, no β3 integrin). (B) scFv binding to M21 melanoma cells. (C) scFv binding to variants of MDA-MB 435 human breast cancer cells that lack (β^3−) or express αvβ3 either in a non-activated (β3WT, ParentCo) or activated form (β3D723R, Bone, Lung, and BMS metastatic cancer cells isolated from breast cancer patient blood).\nFlow cytometry. scFv binding to human tumor cells was analyzed by flow cytometry, initially with cloned scFv phage and then with purified scFv protein. Per sample, 2×10^5 tumor cells were blocked with goat serum and incubated either with scFv phage (2-5×10^10) (1 h at RT) followed by mouse anti-M13 mAb (Serotec) (30 min on ice) and goat FITC-anti mouse (Pierce) (30 min on ice), or with purified scFv (1.25 to 40 μg/ml, routinely 10 to 15 μg/ml) (45 min on ice), followed by mouse anti-FLAG mAb M2 (Sigma) (30 min on ice) and goat FITC-anti mouse. Binding/washing buffer was TBS with or without divalent cations (1 mM Ca^2+, 1 mM Mg^2+, 0.2 mM Mn^2+). Alternatively, tumor cells were washed in 10 ml of plasma (prepared freshly from human blood anticoagulated with 50 nM D-Phe-D-Pro-D-arginyl chloromethyl ketone, PPACK, Felding-Habermann et al., J. Biol. Chem. 271: 5892-5900, 1996), resuspended in plasma and then incubated sequentially, without washing, with purified scFv (45 min on ice), followed by anti-FLAG M2 (30 min on ice) and FITC-anti mouse (30 min on ice). All samples were counter stained with propidium iodide (PI) and analyzed on a Becton-Dickinson FACScan, with live gate set to exclude PI positive cells.\nTo generate therapeutic reagents that specifically react with activated αvβ3, a phage display library of single chain antibody fragments (scFv) was exploited. This library was derived from cancer patient blood lymphocyte cDNA libraries and allowed us to test the hypothesis that the expressed immune repertoire contains antibodies that recognize integrin αvβ3, and distinguish between its activated and non-activated forms. Mao et al., Proc. Natl. Acad. Sci. U.S.A 96: 6953-6958, 1999. A subtractive panning approach was designed based on variants of MDA-MB 435 human breast cancer cells. […] Apparently, these cells are selected during metastasis, as variant cells isolated from lung and bone metastases in immune deficient mice express constitutively activated αvβ3. To establish a cell population that uniformly expresses non-activated αvβ3, MDA-MB 435 parental cells were cloned by limiting dilution, and clones tested for αvβ3 functionality. […] A cell line, MDA-MB 435 Lung-Lung, was established which expressed αvβ3 in a constitutively activated form. This variant stems from a lung metastase of an immune deficient mouse whose mammary fat pad had been injected with parental MDA-MB 435 cells. Felding-Habermann et al., Proc. Natl. Acad. Sci. U.S.A 98: 1853-1858, 2001; Rolli et al., Proc. Natl. Acad. Sci. U.S.A 100: 9482-9487, 2003. To enrich for the ability to colonize the lung from the blood stream, the Lung variant was subsequently injected intravenously, and tumor cells cultured 3 weeks later from the excised lung. Parent Combo cells were used to subtract the scFv phage library to eliminate antibodies against antigens shared by the MDA-MB 435 cell variants. […]"}},
  "data": [
    {"molecule": "GRGDSPK [a fibronectin derived peptide, reference compound]", "values": [
      {"measurement": "adhesion to immobilized fibrinogen", "setting": "[1]", "result": "extent of inhibition by 3 μM scFv was similar to that observed with 200 μM GRGDSPK"},
      {"measurement": "fibrinogen directed migration", "setting": "[2]", "result": "This effect was similar to that seen with 200 μM GRGDSPK"}
    ]},
    {"molecule": "B1", "values": [
      {"measurement": "metastatic activity of human melanoma cells", "setting": "[3]", "result": "inhibited metastatic activity of human melanoma cells in a mouse model"}
    ]},
    {"molecule": "B2", "values": [
      {"measurement": "breast cancer cell arrest during blood flow", "setting": "[4]", "result": "no effect"},
      {"measurement": "reactivity with human tumor cells that express or lack αvβ3", "setting": "[5]; M21, M21-LIIb, UCLA-P3 cells, flow cytometry", "result": "reacted with αv positive cells, regardless of the associated β subunit"},
      {"measurement": "cation requirement of binding", "setting": "[5]; TBS with or without divalent cations", "result": "did not require divalent metal cations"}
    ]}
  ]
}
